Test results as given in US9249224B2 (RINAT NEUROSCIENCE CORP., priority 2011, dated 2016).
Several values for one entry are separate records, joined by “and”; a condition that tells them apart may be missing. Equal values may be shown once.

Test system: cyno GHR
Test: Biacore kinetics and affinity, captured IgG, cyno GHR analyte, 25° C.
Format: binding, cynomolgus monkey
Conditions: IgG immobilized by capture
Procedure: The affinity of a mouse anti-GHR antibody, Ab13, to human and cyno GHR was measured on a Biacore™ 2000 biosensor (GE Lifesciences™, Piscataway N.J.). An anti-mouse Ig sensor surface was prepared using a Biacore™ CM5 chip and reagents from the Biacore™ mouse antibody capture kit (GE Lifesciences™, Catalog# BR-1008-38), using instructions provided by the manufacturer.
The kinetics assay was run using a kinetic titration methodology as described in Karlsson et al., 2006, Anal. Biochem 349, 136-147. The mouse antibody, Ab13, was captured onto downstream flow cells at 0.5 μg/mL at a flow rate of 5 μL/min for 1 minute, 2 minutes and 4 minutes on flow cells 2, 3 and 4 respectively. Flow cell 1 was used as a reference surface. […]
The affinities of a humanized GHR antibody, SS1, and a chimeric molecule comprising the Fab of Ab13 fused to a human Fc domain (“Ab13-hFc”) to human and cyno GHR was measured on a Biacore™ 2000 biosensor (GE Lifesciences™ Piscataway N.J.). […]
The kinetics assay was run using a methodology with varying dissociation times as described in Katsamba et al., 2006, Anal. Biochem 352, 208-221. […] After the analyte injection, dissociation was monitored for 30 minutes (for the 400 nM GHR cycle) or 30 seconds (all other cycles) followed by regeneration of all flow cells with two 30-second injections of 75 mM phosphoric acid. […]

Chain of cyno GHR (as listed by the source): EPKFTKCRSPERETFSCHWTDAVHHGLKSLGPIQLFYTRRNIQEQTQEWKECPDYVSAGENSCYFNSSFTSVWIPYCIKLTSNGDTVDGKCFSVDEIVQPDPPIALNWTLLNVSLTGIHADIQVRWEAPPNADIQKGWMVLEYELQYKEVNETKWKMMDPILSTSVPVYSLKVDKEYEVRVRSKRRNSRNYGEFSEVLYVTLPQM

B1: SS1: humanized GHR antagonist antibody; VL SEQ ID NO: 7, VH SEQ ID NO: 8; hIgG2Δa heavy chain SEQ ID NO: 134, light chain SEQ ID NO: 135 (antibody)
heavy: EVQLVESGGGLVKPGGSLRLSCAASGFTFSDAWMDWVRQAPGKGLEWVAEIRSKANYHATYYAESVKGRFTISRDDSKNTLYLQMNSLKTEDTAVYYCTLIRDYWGQGTLVTVSSASTKGPSVFPLAPCSRSTSESTAALGCLVKDYFPEPVTVSWNSGALTSGVHTFPAVLQSSGLYSLSSVVTVPSSNFGTQTYTCNVDHKPSNTKVDKTVERKCCVECPPCPAPPVAGPSVFLFPPKPKDTLMISRTPEVTCVVVDVSHEDPEVQFNWYVDGVEVHNAKTKPREEQFNSTFRVVSVLTVVHQDWLNGKEYKCKVSNKGLPSSIEKTISKTKGQPREPQVYTLPPSREEMTKNQVSLTCLVKGFYPSDIAVEWESNGQPENNYKTTPPMLDSDGSFFLYSKLTVDKSRWQQGNVFSCSVMHEALHNHYTQKSLSLSPGK
light: EIVLTQSPGTLSLSPGERATLSCTATSSVSSSYLNWYQQKPGQAPRLLIYSTSNLASGIPDRFSGSGSGTDFTLTISRLEPEDFAVYYCHQYHRSTPTFGGGTKVEIKRTVAAPSVFIFPPSDEQLKSGTASVVCLLNNFYPREAKVQWKVDNALQSGNSQESVTEQDSKDSTYSLSSTLTLSKADYEKHKVYACEVTHQGLSSPVTKSFNRGEC
modifications: Humanized and/or affinity matured antibody sequence
With B1 the “ka” value was 89000 M⁻¹ s⁻¹ and 81000 M⁻¹ s⁻¹ and the “kd” value was 0.00011 s⁻¹ and 0.0001 s⁻¹.
